Reference: article PMC2666446 (Journal of molecular biology, 2008)
Where two headings read alike, the source gives them in different places.

T1: MutS (Escherichia coli, UniProt P23909 1-853)
T1 sequence: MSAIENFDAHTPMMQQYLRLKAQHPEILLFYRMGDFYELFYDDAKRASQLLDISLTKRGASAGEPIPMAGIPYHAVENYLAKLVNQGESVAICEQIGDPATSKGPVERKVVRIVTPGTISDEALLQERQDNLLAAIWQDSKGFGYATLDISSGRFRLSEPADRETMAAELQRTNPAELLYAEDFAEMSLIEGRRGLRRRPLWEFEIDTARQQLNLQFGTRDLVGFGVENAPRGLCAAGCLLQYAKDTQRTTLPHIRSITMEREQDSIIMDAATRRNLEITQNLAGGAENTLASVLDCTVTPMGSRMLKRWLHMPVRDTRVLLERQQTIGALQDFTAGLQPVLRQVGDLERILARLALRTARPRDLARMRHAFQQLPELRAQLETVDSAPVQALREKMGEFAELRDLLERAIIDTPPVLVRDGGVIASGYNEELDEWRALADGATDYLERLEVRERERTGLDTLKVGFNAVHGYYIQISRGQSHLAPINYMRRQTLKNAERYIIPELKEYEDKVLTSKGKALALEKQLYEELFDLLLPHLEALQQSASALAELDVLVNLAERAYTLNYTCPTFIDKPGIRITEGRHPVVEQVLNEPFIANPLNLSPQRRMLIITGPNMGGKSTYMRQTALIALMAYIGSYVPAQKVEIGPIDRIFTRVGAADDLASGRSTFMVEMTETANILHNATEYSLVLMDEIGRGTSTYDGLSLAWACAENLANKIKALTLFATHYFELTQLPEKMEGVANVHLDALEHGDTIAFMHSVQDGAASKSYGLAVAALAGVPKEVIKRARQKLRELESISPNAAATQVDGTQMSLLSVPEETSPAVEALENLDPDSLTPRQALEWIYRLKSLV


Assays:
[1] = target: T1, MutS; experiment: competition
[2] = target: T1, MutS; experiment: competition; remark: listed apart in the source
[3] = target: T1, MutS; experiment: FRET equilibrium titration
[4] = target: T1, MutS; experiment: FRET equilibrium titration; remark: listed apart in the source
[5] = target: the molecule itself; experiment: other fluorescence titration
[6] = target: the molecule itself; experiment: other fluorescence titration; remark: listed apart in the source
[7] = target: T1, MutS; experiment: stopped-flow FRET kinetics
[8] = target: T1, MutS; experiment: stopped-flow FRET kinetics; remark: listed apart in the source
[9] = target: T1, MutS; experiment: competition; remark: listed apart in the source

Binder | Kd [3] [µM] | Kd [4] [µM] | also measured
90-bp homoduplex (dsDNA) DNA 1: CGCAGTGCTAAGACGTACCATGCAACCGTAGATTCTAACTGCCAGGCACCAGTGTCAGCGTCGTATAGTCGTGTATAGATCGTTATCTGC DNA 2: GCAGATAACGATCTATACACGACTATACGACGCTGACACTGGTGCCTGGCAGTTAGAATCTACGGTTGCATGGTACGTCTTAGCACTGCG |  |  | Kd [1]: ~3.7 µM; IC50 [2]: ~3.6 µM
30-CT (dsDNA) DNA 1: AACTGCCACGCACCAGTGTCAGCGTCGTAT DNA 2: ATACGACGCTGACACTGGTGCTTGGCAGTT | 0.324 | 0.331 | 
E. coli His6-MutS (natural protein, UniProt P23909 1-853, looked up) MSAIENFDAHTPMMQQYLRLKAQHPEILLFYRMGDFYELFYDDAKRASQLLDISLTKRGASAGEPIPMAGIPYHAVENYLAKLVNQGESVAICEQIGDPATSKGPVERKVVRIVTPGTISDEALLQERQDNLLAAIWQDSKGFGYATLDISSGRFRLSEPADRETMAAELQRTNPAELLYAEDFAEMSLIEGRRGLRRRPLWEFEIDTARQQLNLQFGTRDLVGFGVENAPRGLCAAGCLLQYAKDTQRTTLPHIRSITMEREQDSIIMDAATRRNLEITQNLAGGAENTLASVLDCTVTPMGSRMLKRWLHMPVRDTRVLLERQQTIGALQDFTAGLQPVLRQVGDLERILARLALRTARPRDLARMRHAFQQLPELRAQLETVDSAPVQALREKMGEFAELRDLLERAIIDTPPVLVRDGGVIASGYNEELDEWRALADGATDYLERLEVRERERTGLDTLKVGFNAVHGYYIQISRGQSHLAPINYMRRQTLKNAERYIIPELKEYEDKVLTSKGKALALEKQLYEELFDLLLPHLEALQQSASALAELDVLVNLAERAYTLNYTCPTFIDKPGIRITEGRHPVVEQVLNEPFIANPLNLSPQRRMLIITGPNMGGKSTYMRQTALIALMAYIGSYVPAQKVEIGPIDRIFTRVGAADDLASGRSTFMVEMTETANILHNATEYSLVLMDEIGRGTSTYDGLSLAWACAENLANKIKALTLFATHYFELTQLPEKMEGVANVHLDALEHGDTIAFMHSVQDGAASKSYGLAVAALAGVPKEVIKRARQKLRELESISPNAAATQVDGTQMSLLSVPEETSPAVEALENLDPDSLTPRQALEWIYRLKSLV |  |  | stoichiometry N [5]: 3.7 MutS monomers per heteroduplex; stoichiometry N [6]: 3.58 MutS monomers per heteroduplex
E. coli His6-mutS-A842E (natural protein, UniProt P23909 1-853, looked up) MSAIENFDAHTPMMQQYLRLKAQHPEILLFYRMGDFYELFYDDAKRASQLLDISLTKRGASAGEPIPMAGIPYHAVENYLAKLVNQGESVAICEQIGDPATSKGPVERKVVRIVTPGTISDEALLQERQDNLLAAIWQDSKGFGYATLDISSGRFRLSEPADRETMAAELQRTNPAELLYAEDFAEMSLIEGRRGLRRRPLWEFEIDTARQQLNLQFGTRDLVGFGVENAPRGLCAAGCLLQYAKDTQRTTLPHIRSITMEREQDSIIMDAATRRNLEITQNLAGGAENTLASVLDCTVTPMGSRMLKRWLHMPVRDTRVLLERQQTIGALQDFTAGLQPVLRQVGDLERILARLALRTARPRDLARMRHAFQQLPELRAQLETVDSAPVQALREKMGEFAELRDLLERAIIDTPPVLVRDGGVIASGYNEELDEWRALADGATDYLERLEVRERERTGLDTLKVGFNAVHGYYIQISRGQSHLAPINYMRRQTLKNAERYIIPELKEYEDKVLTSKGKALALEKQLYEELFDLLLPHLEALQQSASALAELDVLVNLAERAYTLNYTCPTFIDKPGIRITEGRHPVVEQVLNEPFIANPLNLSPQRRMLIITGPNMGGKSTYMRQTALIALMAYIGSYVPAQKVEIGPIDRIFTRVGAADDLASGRSTFMVEMTETANILHNATEYSLVLMDEIGRGTSTYDGLSLAWACAENLANKIKALTLFATHYFELTQLPEKMEGVANVHLDALEHGDTIAFMHSVQDGAASKSYGLAVAALAGVPKEVIKRARQKLRELESISPNAAATQVDGTQMSLLSVPEETSPAVEALENLDPDSLTPRQELEWIYRLKSLV |  |  | stoichiometry N [5]: 2.21 MutS monomers per heteroduplex; stoichiometry N [6]: 2.27 MutS monomers per heteroduplex
30-2ΔT (dsDNA) DNA 1: AACTGCCAGGCACCAGTGTCAGCGTCGTAT DNA 2: ATACGACGCTGACACTGGTGCCTTTGGCAGTT | 0.089 | 0.074 | 
30-TG (dsDNA) DNA 1: AACTGCCATGCACCAGTGTCAGCGTCGTAT DNA 2: ATACGACGCTGACACTGGTGCGTGGCAGTT | 0.08 | 0.07 | 
30-CC (dsDNA) DNA 1: AACTGCCACGCACCAGTGTCAGCGTCGTAT DNA 2: ATACGACGCTGACACTGGTGCCTGGCAGTT | 0.3 | 0.41 | 
30-AC (dsDNA) DNA 1: AACTGCCAAGCACCAGTGTCAGCGTCGTAT DNA 2: ATACGACGCTGACACTGGTGCCTGGCAGTT | 0.154 | 0.097 | 
30-AA (dsDNA) DNA 1: AACTGCCAAGCACCAGTGTCAGCGTCGTAT DNA 2: ATACGACGCTGACACTGGTGCATGGCAGTT | 0.214 | 0.108 | Kd [7]: 0.063 µM; Kd [8]: 0.153 µM
30-TT (dsDNA) DNA 1: AACTGCCATGCACCAGTGTCAGCGTCGTAT DNA 2: ATACGACGCTGACACTGGTGCTTGGCAGTT | 0.291 | 0.321 | 
30-AG (dsDNA) DNA 1: AACTGCCAAGCACCAGTGTCAGCGTCGTAT DNA 2: ATACGACGCTGACACTGGTGCGTGGCAGTT | 0.319 | 0.251 | 
30-GC (30-bp homoduplex) (dsDNA) DNA 1: AACTGCCAGGCACCAGTGTCAGCGTCGTAT DNA 2: ATACGACGCTGACACTGGTGCCTGGCAGTT |  |  | Kd [9]: 30.5 µM; Kd [1]: 23.1 µM
AACTGCCAGGCACCAGTGTCAGCGTCGTAT (ssDNA) [30-ssDNA] |  |  | Kd [1]: 6.5 µM; IC50 [2]: ~6.2 µM
30-GG (dsDNA) DNA 1: AACTGCCAGGCACCAGTGTCAGCGTCGTAT DNA 2: ATACGACGCTGACACTGGTGCGTGGCAGTT | 0.168 | 0.137 | 
